Experimental data reported in patent US20160046724A1 (Novartis, published 2016).

T1: BCMA-Fc antigen (UniProt Q02223 5-51, limits assumed)
T1 construct: Bought reagent; also called BCMA fc fusion protein; recombinant BCMA-Fc; not shown: Fc region
T1 chain (looked up): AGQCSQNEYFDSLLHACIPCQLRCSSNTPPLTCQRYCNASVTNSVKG


Target: T1, BCMA-Fc antigen
Assay: flow cytometry of CAR-transduced JNL cells stained with BCMA-Fc antigen
Method: Jurkat-NFAT-luciferase (JNL) cells transduced with BCMA CAR constructs were evaluated for activation in response to BCMA-expressing target cell lines. Small-scale viral supernatant samples were generated in HEK293T cells for transduction of JNL cells. On Day 3 following transduction, BCMA CAR-transduced JNL cells were incubated with target cells at an effector-to-target (E:T) ratio of 6:1. Target cell lines were: K562-BCMA (engineered to stably express BCMA), K562 (parental line), and BCMA positive multiple myeloma cell lines, NCI-H929 and RPMI 8226. JNL activation was measured using Bright-Glo substrate (Promega) on Day 4. CAR expression on transduced JNL was assessed on Day 7 with BCMA-Fc antigen and Biotin-Protein L reagent (Table 7).

Binder | % CAR+ (BCMA-Fc detection) [%]
BCMA-2 CAR (other, also called 139101 Full CAR; UR96-08PA) QVQLQESGGGLVQPGGSLRLSCAASGFTFSSDAMTWVRQAPGKGLEWVSVISGSGGTTYYADSVKGRFTISRDNSKNTLYLQMNSLRAEDTAVYYCAKLDSSGYYYARGPRYWGQGTLVTVSSASGGGGSGGRASGGGGSDIQLTQSPSSLSASVGDRVTITCRASQSISSYLNWYQQKPGKAPKLLIYGASTLASGVPARFSGSGSGTHFTLTINSLQSEDSATYYCQQSYKRASFGQGTKVEIKTTTPAPRPPTPAPTIASQPLSLRPEACRPAAGGAVHTRGLDFACDIYIWAPLAGTCGVLLLSLVITLYCKRGRKKLLYIFKQPFMRPVQTTQEEDGCSCRFPEEEEGGCELRVKFSRSADAPAYKQGQNQLYNELNLGRREEYDVLDKRRGRDPEMGGKPRRKNPQEGLYNELQKDKMAEAYSEIGMKGERRRGKGHDGLYQGLSTATKDTYDALHMQALPPR | 32
BCMA-7 CAR (other, also called 139106 Full CAR; QR91-12ZA) EVQLVETGGGLVQPGGSLRLSCAVSGFALSNHGMSWVRRAPGKGLEWVSGIVYSGSTYYAASVKGRFTISRDNSRNTLYLQMNSLRPEDTAIYYCSAHGGESDVWGQGTTVTVSSASGGGGSGGRASGGGGSEIVMTQSPATLSVSPGERATLSCRASQSVSSKLAWYQQKPGQAPRLLMYGASIRATGIPDRFSGSGSGTEFTLTISSLEPEDFAVYYCQQYGSSSWTFGQGTKVEIKTTTPAPRPPTPAPTIASQPLSLRPEACRPAAGGAVHTRGLDFACDIYIWAPLAGTCGVLLLSLVITLYCKRGRKKLLYIFKQPFMRPVQTTQEEDGCSCRFPEEEEGGCELRVKFSRSADAPAYKQGQNQLYNELNLGRREEYDVLDKRRGRDPEMGGKPRRKNPQEGLYNELQKDKMAEAYSEIGMKGERRRGKGHDGLYQGLSTATKDTYDALHMQALPPR | 30.4
BCMA-11 CAR (other, also called 139110 Full CAR; UG65-93FB) QVQLVQSGGGLVKPGGSLRLSCAASGFTFSDYYMSWIRQAPGKGLEWVSYISSSGNTIYYADSVKGRFTISRDNAKNSLYLQMNSLRAEDTAVYYCARSTMVREDYWGQGTLVTVSSASGGGGSGGRASGGGGSDIVLTQSPLSLPVTLGQPASISCKSSESLVHNSGKTYLNWFHQRPGQSPRRLIYEVSNRDSGVPDRFTGSGSGTDFTLKISRVEAEDVGVYYCMQGTHWPGTFGQGTKLEIKTTTPAPRPPTPAPTIASQPLSLRPEACRPAAGGAVHTRGLDFACDIYIWAPLAGTCGVLLLSLVITLYCKRGRKKLLYIFKQPFMRPVQTTQEEDGCSCRFPEEEEGGCELRVKFSRSADAPAYKQGQNQLYNELNLGRREEYDVLDKRRGRDPEMGGKPRRKNPQEGLYNELQKDKMAEAYSEIGMKGERRRGKGHDGLYQGLSTATKDTYDALHMQALPPR | 42.7
BCMA-5 CAR (other, also called 139104 Full CAR; AR99-08FA) EVQLLETGGGLVQPGGSLRLSCAVSGFALSNHGMSWVRRAPGKGLEWVSGIVYSGSTYYAASVKGRFTISRDNSRNTLYLQMNSLRPEDTAIYYCSAHGGESDVWGQGTTVTVSSASGGGGSGGRASGGGGSEIVLTQSPATLSVSPGESATLSCRASQSVSSNLAWYQQKPGQAPRLLIYGASTRASGIPDRFSGSGSGTDFTLTISSLQAEDVAVYYCQQYGSSLTFGGGTKVEIKTTTPAPRPPTPAPTIASQPLSLRPEACRPAAGGAVHTRGLDFACDIYIWAPLAGTCGVLLLSLVITLYCKRGRKKLLYIFKQPFMRPVQTTQEEDGCSCRFPEEEEGGCELRVKFSRSADAPAYKQGQNQLYNELNLGRREEYDVLDKRRGRDPEMGGKPRRKNPQEGLYNELQKDKMAEAYSEIGMKGERRRGKGHDGLYQGLSTATKDTYDALHMQALPPR | 28.9
BCMA-14 CAR (other, also called 139113 Full CAR; HJ64-62PB) EVQLVETGGGLVQPGGSLRLSCAVSGFALSNHGMSWVRRAPGKGLEWVSGIVYSGSTYYAASVKGRFTISRDNSRNTLYLQMNSLRPEDTAIYYCSAHGGESDVWGQGTTVTVSSASGGGGSGGRASGGGGSETTLTQSPATLSVSPGERATLSCRASQSVGSNLAWYQQKPGQGPRLLIYGASTRATGIPARFSGSGSGTEFTLTISSLQPEDFAVYYCQQYNDWLPVTFGQGTKVEIKTTTPAPRPPTPAPTIASQPLSLRPEACRPAAGGAVHTRGLDFACDIYIWAPLAGTCGVLLLSLVITLYCKRGRKKLLYIFKQPFMRPVQTTQEEDGCSCRFPEEEEGGCELRVKFSRSADAPAYKQGQNQLYNELNLGRREEYDVLDKRRGRDPEMGGKPRRKNPQEGLYNELQKDKMAEAYSEIGMKGERRRGKGHDGLYQGLSTATKDTYDALHMQALPPR | 31.8
BCMA-12 CAR (other, also called 139111 Full CAR; HU13-58ZB) EVQLLESGGGLVQPGGSLRLSCAVSGFALSNHGMSWVRRAPGKGLEWVSGIVYSGSTYYAASVKGRFTISRDNSRNTLYLQMNSLRPEDTAIYYCSAHGGESDVWGQGTTVTVSSASGGGGSGGRASGGGGSDIVMTQTPLSLSVTPGQPASISCKSSQSLLRNDGKTPLYWYLQKAGQPPQLLIYEVSNRFSGVPDRFSGSGSGTDFTLKISRVEAEDVGAYYCMQNIQFPSFGGGTKLEIKTTTPAPRPPTPAPTIASQPLSLRPEACRPAAGGAVHTRGLDFACDIYIWAPLAGTCGVLLLSLVITLYCKRGRKKLLYIFKQPFMRPVQTTQEEDGCSCRFPEEEEGGCELRVKFSRSADAPAYKQGQNQLYNELNLGRREEYDVLDKRRGRDPEMGGKPRRKNPQEGLYNELQKDKMAEAYSEIGMKGERRRGKGHDGLYQGLSTATKDTYDALHMQALPPR | 23.4
BCMA-9 CAR (other, also called 139108 Full CAR; OG62-93QB) QVQLVESGGGLVKPGGSLRLSCAASGFTFSDYYMSWIRQAPGKGLEWVSYISSSGSTIYYADSVKGRFTISRDNAKNSLYLQMNSLRAEDTAVYYCARESGDGMDVWGQGTTVTVSSASGGGGSGGRASGGGGSDIQMTQSPSSLSASVGDRVTITCRASQSISSYLNWYQQKPGKAPKLLIYAASSLQSGVPSRFSGSGSGTDFTLTISSLQPEDFATYYCQQSYTLAFGQGTKVDIKTTTPAPRPPTPAPTIASQPLSLRPEACRPAAGGAVHTRGLDFACDIYIWAPLAGTCGVLLLSLVITLYCKRGRKKLLYIFKQPFMRPVQTTQEEDGCSCRFPEEEEGGCELRVKFSRSADAPAYKQGQNQLYNELNLGRREEYDVLDKRRGRDPEMGGKPRRKNPQEGLYNELQKDKMAEAYSEIGMKGERRRGKGHDGLYQGLSTATKDTYDALHMQALPPR | 54.7
BCMA-1 CAR (other, also called 139100 Full CAR; ER95-03VA) QVQLVQSGAEVRKTGASVKVSCKASGYIFDNFGINWVRQAPGQGLEWMGWINPKNNNTNYAQKFQGRVTITADESTNTAYMEVSSLRSEDTAVYYCARGPYYYQSYMDVWGQGTMVTVSSASGGGGSGGRASGGGGSDIVMTQTPLSLPVTPGEPASISCRSSQSLLHSNGYNYLNWYLQKPGQSPQLLIYLGSKRASGVPDRFSGSGSGTDFTLHITRVGAEDVGVYYCMQALQTPYTFGQGTKLEIKTTTPAPRPPTPAPTIASQPLSLRPEACRPAAGGAVHTRGLDFACDIYIWAPLAGTCGVLLLSLVITLYCKRGRKKLLYIFKQPFMRPVQTTQEEDGCSCRFPEEEEGGCELRVKFSRSADAPAYKQGQNQLYNELNLGRREEYDVLDKRRGRDPEMGGKPRRKNPQEGLYNELQKDKMAEAYSEIGMKGERRRGKGHDGLYQGLSTATKDTYDALHMQALPPR | 72.1
BCMA-13 CAR (other, also called 139112 Full CAR; KG66-98AB) QVQLVESGGGLVQPGGSLRLSCAVSGFALSNHGMSWVRRAPGKGLEWVSGIVYSGSTYYAASVKGRFTISRDNSRNTLYLQMNSLRPEDTAIYYCSAHGGESDVWGQGTTVTVSSASGGGGSGGRASGGGGSDIRLTQSPSPLSASVGDRVTITCQASEDINKFLNWYHQTPGKAPKLLIYDASTLQTGVPSRFSGSGSGTDFTLTINSLQPEDIGTYYCQQYESLPLTFGGGTKVEIKTTTPAPRPPTPAPTIASQPLSLRPEACRPAAGGAVHTRGLDFACDIYIWAPLAGTCGVLLLSLVITLYCKRGRKKLLYIFKQPFMRPVQTTQEEDGCSCRFPEEEEGGCELRVKFSRSADAPAYKQGQNQLYNELNLGRREEYDVLDKRRGRDPEMGGKPRRKNPQEGLYNELQKDKMAEAYSEIGMKGERRRGKGHDGLYQGLSTATKDTYDALHMQALPPR | 32.7
BCMA-3 CAR (other, Chimeric antigen receptor; 0.0 % CAR+ on JNL cells by BCMA-Fc detection; also called 139102 Full CAR; KR98-03KA) QVQLVQSGAEVKKPGASVKVSCKASGYTFSNYGITWVRQAPGQGLEWMGWISAYNGNTNYAQKFQGRVTMTRNTSISTAYMELSSLRSEDTAVYYCARGPYYYYMDVWGKGTMVTVSSASGGGGSGGRASGGGGSEIVMTQSPLSLPVTPGEPASISCRSSQSLLYSNGYNYVDWYLQKPGQSPQLLIYLGSNRASGVPDRFSGSGSGTDFKLQISRVEAEDVGIYYCMQGRQFPYSFGQGTKVEIKTTTPAPRPPTPAPTIASQPLSLRPEACRPAAGGAVHTRGLDFACDIYIWAPLAGTCGVLLLSLVITLYCKRGRKKLLYIFKQPFMRPVQTTQEEDGCSCRFPEEEEGGCELRVKFSRSADAPAYKQGQNQLYNELNLGRREEYDVLDKRRGRDPEMGGKPRRKNPQEGLYNELQKDKMAEAYSEIGMKGERRRGKGHDGLYQGLSTATKDTYDALHMQALPPR | 0
BCMA-4 CAR (other, also called 139103 Full CAR; JF32-78IB) QVQLVESGGGLVQPGRSLRLSCAASGFTFSNYAMSWVRQAPGKGLGWVSGISRSGENTYYADSVKGRFTISRDNSKNTLYLQMNSLRDEDTAVYYCARSPAHYYGGMDVWGQGTTVTVSSASGGGGSGGRASGGGGSDIVLTQSPGTLSLSPGERATLSCRASQSISSSFLAWYQQKPGQAPRLLIYGASRRATGIPDRFSGSGSGTDFTLTISRLEPEDSAVYYCQQYHSSPSWTFGQGTKLEIKTTTPAPRPPTPAPTIASQPLSLRPEACRPAAGGAVHTRGLDFACDIYIWAPLAGTCGVLLLSLVITLYCKRGRKKLLYIFKQPFMRPVQTTQEEDGCSCRFPEEEEGGCELRVKFSRSADAPAYKQGQNQLYNELNLGRREEYDVLDKRRGRDPEMGGKPRRKNPQEGLYNELQKDKMAEAYSEIGMKGERRRGKGHDGLYQGLSTATKDTYDALHMQALPPR | 49.5
